# Measurements from publication PMC3963918, “CCHCR1 Interacts Specifically with the E2 Protein of Human Papillomavirus Type 16 on a Surface Overlapping BRD4 Binding” (PLoS ONE, 2014).
# T1: HPV16 E2 protein fused to Gaussia luciferase fragment GL2 (human papillomavirus type 16, UniProt P03120 1-365)
# T1 construct: source: 293 T cells, transfected (pSPICA-N2), in lysate
# T1 sequence: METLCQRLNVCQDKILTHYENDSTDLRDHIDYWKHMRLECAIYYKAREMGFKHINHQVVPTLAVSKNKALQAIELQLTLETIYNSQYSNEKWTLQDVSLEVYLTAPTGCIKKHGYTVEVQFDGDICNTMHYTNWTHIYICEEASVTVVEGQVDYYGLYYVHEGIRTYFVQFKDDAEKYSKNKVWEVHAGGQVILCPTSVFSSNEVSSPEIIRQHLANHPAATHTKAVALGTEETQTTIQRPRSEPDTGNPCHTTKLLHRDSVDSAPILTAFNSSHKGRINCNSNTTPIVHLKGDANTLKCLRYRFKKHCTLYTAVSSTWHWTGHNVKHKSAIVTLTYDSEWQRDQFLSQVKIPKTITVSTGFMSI
# B1: CCHCR1 (Coiled-Coil alpha HeliCal Rod protein 1), polypeptide from amino acid 137 to the stop codon, fused to Gaussia luciferase fragment GL1 (domain or fragment)
# chain: KAGRAEAEGLRAALAGAEVVRKNLEEGSQRELEEVQRLHQEQLSSLTQAHEEALSSLTSKAEGLEKSLSSLETRRAGEAKELAEAQREAELLRKQLSKTQEDLEAQVTLVENLRKYVGEQVPSEVHSQTWELERQKLLETMQHLQEDRDSLHATAELLQVRVQSLTHILALQEEELTRKVQPSDSLEPEFTRKCQSLLNRWREKVFALMVQLKAQELEHSDSVKQLKGQVASLQEKVTSQSQEQAILQRSLQDKAAEVEVERMGAKGLQLELSRAQEARRRWQQQTASAEEQLRLVVNAVSSSQIWLETTMAKVEGAAAQLPSLNNRLSYAVRKVHTIRGLIARKLALAQLRQESCPLPPPVTDVSLELQQLREERNRLDAELQLSARLIQQEVGRAREQGEAERQQLSKVAQQLEQELQQTQESLASLGLQLEVARQGQQESTEEAASLRQELTQQQELYGQALQEKVAEVETRLREQLSDTERRLNEARREHAKAVVSLRQIQRRAAQEKERSQELRRLQEEARKEEGQRLARRLQELERDKNLMLATLQQEGLLSRYKQQRLLTVLPSLLDKKKSVVSSPRPPECSASAPVAAAVPTRESIKGSLSVLLDDLQDLSEAISKEEAVCQGDNLDRCSSSNPQMSS
# notes: also called Pg8; SBP
# B2: 3XFLAG-tagged CCHCR1, shorter E2-interacting isoform (amino acid 137 to the stop codon) (domain or fragment)
# chain: B1 chain
# notes: also called Flag-CCHCR1; 3XFLAG CCHCR1; source: 293 T cells, transfected (pCiNeo-3XF), in lysate
# Legend:
# [1] = target: T1, HPV16 E2 protein fused to Gaussia …; assay: split reporter (BiFC, NanoBiT); settings: partners not purified
# [2] = target: T1, HPV16 E2 protein fused to Gaussia …; assay: split reporter (BiFC, NanoBiT); GPCA competition: GL1 and GL2 partners plus a 3XFlag-tagged challenging protein (0.5 ug of each plasmid) in 293 T cells, 12-well plates, harvested 40 h after transfection; NLR relative to empty plasmid; settings: partners not purified
Binder,NLR (Normalized Luminescence Ratio) [1],fold decrease of the NLR of HPV16 E2 with BRD4 in the presence of CCHCR1 [2] [fold]
B1,~250,–
B2,–,5
